Assay results published in publication PMC11574045, “A cofactor-induced repressive type of transcription factor condensation can be induced by synthetic peptides to suppress tumorigenesis” (The EMBO Journal, 2024).

B1: NR2B3/RXRG (protein, UniProt P28705 1-463, looked up)
Retinoic acid receptor …: MYGNYSHFMKFPTGFGGSPGHTGSTSMSPSVALPTGKPMDSHPSYTDTPVSAPRTLSAVGTPLNALGSPYRVITSAMGPPSGALAAPPGINLVAPPSSQLNVVNSVSSSEDIKPLPGLPGIGNMNYPSTSPGSLVKHICAICGDRSSGKHYGVYSCEGCKGFFKRTIRKDLIYTCRDNKDCLIDKRQRNRCQYCRYQKCLVMGMKREAVQEERQRSRERAESEAECASSSHEDMPVERILEAELAVEPKTESYGDMNVENSTNDPVTNICHAADKQLFTLVEWAKRIPHFSDLTLEDQVILLRAGWNELLIASFSHRSVSVQDGILLATGLHVHRSSAHSAGVGSIFDRVLTELVSKMKDMQMDKSELGCLRAIVLFNPDAKGLSNPSEVETLREKVYATLEAYTKQKYPEQPGRFAKLLLRLPALRSIGLKCLEHLFFFKLIGDTPIDSFLMEMLETPLQIT
B2: NR2C1/TR2A (protein, UniProt Q505F1 1-590, looked up)
Nuclear receptor subfamily 2 …: MATIEEIAHQIIDQQMGEIVTEQQTGQKIQIVTALDHSTQGKQFILANHEGSTPGKVFLTTPDAAGVNQLFFTSPDLSAPHLQLLTEKSPDQGPNKVFDLCVVCGDKASGRHYGAITCEGCKGFFKRSIRKNLVYSCRGSKDCVINKHHRNRCQYCRLQRCIAFGMKQDSVQCERKPIEVSREKSSNCAASTEKIYIRKDLRSPLAATPTFVTDSETARSAGLLDSGMFVNIHPSGIKTEPAMLMAPDKAESCQGDLSTLASVVTSLANLGKAKDLSHCGGDMPVVQSLRNGDTSFGAFHHDIQTNGDVSRAFDTLAKALTPGESSACQSPEEGMEGSPHLIAGEPSFVEKEGPLLSESHVAFRLTMPSPMPEYLNVHYIGESASRLLFLSMHWALSIPSFQALGQENSISLVKAYWNELFTLGLAQCWQVMNVATILATFVNCLHSSLQQDKMSPERRKSLMEHIFKLQEFCNSMVKLCIDGHEYAYLKAIVLFSPDHPGLENMELIERFQEKAYVEFQDYITRTYPDDTYRLSRLLLRLPALRLMNATITEELFFKGLIGNVRIDSVIPHILKMEPADYNSQIIGHSL
B3: NR2F6 (protein, UniProt P10588 1-404, looked up)
Nuclear receptor subfamily 2 …: MAMVTGGWGGPGGDTNGVDKAGGYPRAAEDDSASPPGAASDAEPGDEERPGLQVDCVVCGDKSSGKHYGVFTCEGCKSFFKRSIRRNLSYTCRSNRDCQIDQHHRNQCQYCRLKKCFRVGMRKEAVQRGRIPHSLPGAVAASSGSPPGSALAAVASGGDLFPGQPVSELIAQLLRAEPYPAAAGRFGAGGGAAGAVLGIDNVCELAARLLFSTVEWARHAPFFPELPVADQVALLRLSWSELFVLNAAQAALPLHTAPLLAAAGLHAAPMAAERAVAFMDQVRAFQEQVDKLGRLQVDSAEYGCLKAIALFTPDACGLSDPAHVESLQEKAQVALTEYVRAQYPSQPQRFGRLLLRLPALRAVPASLISQLFFMRLVGKTPIETLIRDMLLSGSTFNWPYGSGQ
B4: NR3C2 (protein, UniProt P08235 1-984, looked up)
Mineralocorticoid receptor: METKGYHSLPEGLDMERRWGQVSQAVERSSLGPTERTDENNYMEIVNVSCVSGAIPNNSTQGSSKEKQELLPCLQQDNNRPGILTSDIKTELESKELSATVAESMGLYMDSVRDADYSYEQQNQQGSMSPAKIYQNVEQLVKFYKGNGHRPSTLSCVNTPLRSFMSDSGSSVNGGVMRAVVKSPIMCHEKSPSVCSPLNMTSSVCSPAGINSVSSTTASFGSFPVHSPITQGTPLTCSPNVENRGSRSHSPAHASNVGSPLSSPLSSMKSSISSPPSHCSVKSPVSSPNNVTLRSSVSSPANINNSRCSVSSPSNTNNRSTLSSPAASTVGSICSPVNNAFSYTASGTSAGSSTLRDVVPSPDTQEKGAQEVPFPKTEEVESAISNGVTGQLNIVQYIKPEPDGAFSSSCLGGNSKINSDSSFSVPIKQESTKHSCSGTSFKGNPTVNPFPFMDGSYFSFMDDKDYYSLSGILGPPVPGFDGNCEGSGFPVGIKQEPDDGSYYPEASIPSSAIVGVNSGGQSFHYRIGAQGTISLSRSARDQSFQHLSSFPPVNTLVESWKSHGDLSSRRSDGYPVLEYIPENVSSSTLRSVSTGSSRPSKICLVCGDEASGCHYGVVTCGSCKVFFKRAVEGQHNYLCAGRNDCIIDKIRRKNCPACRLQKCLQAGMNLGARKSKKLGKLKGIHEEQPQQQQPPPPPPPPQSPEEGTTYIAPAKEPSVNTALVPQLSTISRALTPSPVMVLENIEPEIVYAGYDSSKPDTAENLLSTLNRLAGKQMIQVVKWAKVLPGFKNLPLEDQITLIQYSWMCLSSFALSWRSYKHTNSQFLYFAPDLVFNEEKMHQSAMYELCQGMHQISLQFVRLQLTFEEYTIMKVLLLLSTIPKDGLKSQAAFEEMRTNYIKELRKMVTKCPNNSGQSWQRFYQLTKLLDSMHDLVSDLLEFCFYTFRESHALKVEFPAMLVEIISDQLPKVESGNAKPLYFHRK
B5: NR5A1/FTZ-F1A (protein, UniProt P33242 1-462, looked up)
Steroidogenic factor 1: MDYSYDEDLDELCPVCGDKVSGYHYGLLTCESCKGFFKRTVQNNKHYTCTESQSCKIDKTQRKRCPFCRFQKCLTVGMRLEAVRADRMRGGRNKFGPMYKRDRALKQQKKAQIRANGFKLETGPPMGVPPPPPPPPDYMLPPSLHAPEPKALVSGPPSGPLGDFGAPSLPMAVPGPHGPLAGYLYPAFSNRTIKSEYPEPYASPPQQPGPPYSYPEPFSGGPNVPELILQLLQLEPEEDQVRARIVGCLQEPAKSRSDQPAPFSLLCRMADQTFISIVDWARRCMVFKELEVADQMTLLQNCWSELLVLDHIYRQVQYGKEDSILLVTGQEVELSTVAVQAGSLLHSLVLRAQELVLQLHALQLDRQEFVCLKFLILFSLDVKFLNNHSLVKDAQEKANAALLDYTLCHYPHCGDKFQQLLLCLVEVRALSMQAKEYLYHKHLGNEMPRNNLLIEMLQAKQT
B6: NRIP1 (protein, UniProt P48552 1-1158, looked up)
Nuclear receptor-interacting …: MTHGEELGSDVHQDSIVLTYLEGLLMHQAAGGSGTAVDKKSAGHNEEDQNFNISGSAFPTCQSNGPVLNTHTYQGSGMLHLKKARLLQSSEDWNAAKRKRLSDSIMNLNVKKEALLAGMVDSVPKGKQDSTLLASLLQSFSSRLQTVALSQQIRQSLKEQGYALSHDSLKVEKDLRCYGVASSHLKTLLKKSKVKDQKPDTNLPDVTKNLIRDRFAESPHHVGQSGTKVMSEPLSCAARLQAVASMVEKRASPATSPKPSVACSQLALLLSSEAHLQQYSREHALKTQNANQAASERLAAMARLQENGQKDVGSYQLPKGMSSHLNGQARTSSSKLMASKSSATVFQNPMGIIPSSPKNAGYKNSLERNNIKQAANNSLLLHLLKSQTIPKPMNGHSHSERGSIFEESSTPTTIDEYSDNNPSFTDDSSGDESSYSNCVPIDLSCKHRTEKSESDQPVSLDNFTQSLLNTWDPKVPDVDIKEDQDTSKNSKLNSHQKVTLLQLLLGHKNEENVEKNTSPQGVHNDVSKFNTQNYARTSVIESPSTNRTTPVSTPPLLTSSKAGSPINLSQHSLVIKWNSPPYVCSTQSEKLTNTASNHSMDLTKSKDPPGEKPAQNEGAQNSATFSASKLLQNLAQCGMQSSMSVEEQRPSKQLLTGNTDKPIGMIDRLNSPLLSNKTNAVEENKAFSSQPTGPEPGLSGSEIENLLERRTVLQLLLGNPNKGKSEKKEKTPLRDESTQEHSERALSEQILMVKIKSEPCDDLQIPNTNVHLSHDAKSAPFLGMAPAVQRSAPALPVSEDFKSEPVSPQDFSFSKNGLLSRLLRQNQDSYLADDSDRSHRNNEMALLESKNLCMVPKKRKLYTEPLENPFKKMKNNIVDAANNHSAPEVLYGSLLNQEELKFSRNDLEFKYPAGHGSASESEHRSWARESKSFNVLKQLLLSENCVRDLSPHRSNSVADSKKKGHKNNVTNSKPEFSISSLNGLMYSSTQPSSCMDNRTFSYPGVVKTPVSPTFPEHLGCAGSRPESGLLNGCSMPSEKGPIKWVITDAEKNEYEKDSPRLTKTNPILYYMLQKGGNSVTSRETQDKDIWREASSAESVSQVTAKEELLPTAETKASFFNLRSPYNSHMGNNASRPHSANGEVYGLLGSVLTIKKESE
B7: ATF7 (protein, UniProt P17544 1-483, looked up)
Cyclic AMP-dependent …: MGDDRPFVCNAPGCGQRFTNEDHLAVHKHKHEMTLKFGPARTDSVIIADQTPTPTRFLKNCEEVGLFNELASSFEHEFKKAADEDEKKAAAGPLDMSLPSTPDIKIKEEEPVEVDSSPPDSPASSPCSPPLKEKEVTPKPVLISTPTPTIVRPGSLPLHLGYDPLHPTLPSPTSVITQAPPSNRQMGSPTGSLPLVMHLANGQTMPVLPGPPVQMPSVISLARPVSMVPNIPGIPGPPVNSSGSISPSGHPIPSEAKMRLKATLTHQVSSINGGCGMVVGTASTMVTARPEQSQILIQHPDAPSPAQPQVSPAQPTPSTGGRRRRTVDEDPDERRQRFLERNRAAASRCRQKRKLWVSSLEKKAEELTSQNIQLSNEVTLLRNEVAQLKQLLLAHKDCPVTALQKKTQGYLESPKESSEPTGSPAPVIQHSSATAPSNGLSVRSAAEAVATSVLTQMASQRTELSMPIQSHVIMTPQSQSAGR
B8: NSD2 (protein, UniProt O96028 1-1365, looked up)
Histone-lysine …: MEFSIKQSPLSVQSVVKCIKMKQAPEILGSANGKTPSCEVNRECSVFLSKAQLSSSLQEGVMQKFNGHDALPFIPADKLKDLTSRVFNGEPGAHDAKLRFESQEMKGIGTPPNTTPIKNGSPEIKLKITKTYMNGKPLFESSICGDSAADVSQSEENGQKPENKARRNRKRSIKYDSLLEQGLVEAALVSKISSPSDKKIPAKKESCPNTGRDKDHLLKYNVGDLVWSKVSGYPWWPCMVSADPLLHSYTKLKGQKKSARQYHVQFFGDAPERAWIFEKSLVAFEGEGQFEKLCQESAKQAPTKAEKIKLLKPISGKLRAQWEMGIVQAEEAASMSVEERKAKFTFLYVGDQLHLNPQVAKEAGIAAESLGEMAESSGVSEEAAENPKSVREECIPMKRRRRAKLCSSAETLESHPDIGKSTPQKTAEADPRRGVGSPPGRKKTTVSMPRSRKGDAASQFLVFCQKHRDEVVAEHPDASGEEIEELLRSQWSLLSEKQRARYNTKFALVAPVQAEEDSGNVNGKKRNHTKRIQDPTEDAEAEDTPRKRLRTDKHSLRKRDTITDKTARTSSYKAMEAASSLKSQAATKNLSDACKPLKKRNRASTAASSALGFSKSSSPSASLTENEVSDSPGDEPSESPYESADETQTEVSVSSKKSERGVTAKKEYVCQLCEKPGSLLLCEGPCCGAFHLACLGLSRRPEGRFTCSECASGIHSCFVCKESKTDVKRCVVTQCGKFYHEACVKKYPLTVFESRGFRCPLHSCVSCHASNPSNPRPSKGKMMRCVRCPVAYHSGDACLAAGCSVIASNSIICTAHFTARKGKRHHAHVNVSWCFVCSKGGSLLCCESCPAAFHPDCLNIEMPDGSWFCNDCRAGKKLHFQDIIWVKLGNYRWWPAEVCHPKNVPPNIQKMKHEIGEFPVFFFGSKDYYWTHQARVFPYMEGDRGSRYQGVRGIGRVFKNALQEAEARFREIKLQREARETQESERKPPPYKHIKVNKPYGKVQIYTADISEIPKCNCKPTDENPCGFDSECLNRMLMFECHPQVCPAGEFCQNQCFTKRQYPETKIIKTDGKGWGLVAKRDIRKGEFVNEYVGELIDEEECMARIKHAHENDITHFYMLTIDKDRIIDAGPKGNYSRFMNHSCQPNCETLKWTVNGDTRVGLFAVCDIPAGTELTFNYNLDCLGNEKTVCRCGASNCSGFLGDRPKTSTTLSSEEKGKKTKKKTRRRRAKGEGKRQSEDECFRCGDGGQLVLCDRKFCTKAYHLSCLGLGKRPFGKWECPWHHCDVCGKPSTSFCHLCPNSFCKEHQDGTAFSCTPDGRSYCCEHDLGAASVRSTKTEKPPPEPGKPKGKRRRRRGWRRVTEGK

What follows are molecules tested on HEK293FT cells transfected with TF library (assay: Screening of TF condensates based on fluorescent puncta). Details: Figure 1B numerical data; TF library screen, one value per transcriptional factor.
Type: cell-based
Method in brief: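 Puncta scoring used automated confocal imaging of fifty random fields per well, after anti-Flag or anti-GAL4 immunofluorescence (Alexa 488) in PFA-fixed cells. HEK293FT cells carried TF library plasmids delivered with PEI (1.6 μg/ml DNA). At 60 h they were switched for 12 h to glucose-containing or glucose-free medium.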

Molecule | Z score of condensed fraction
B1 | -0.7251
B2 | -0.6816
B3 | 2.586
B4 | -0.7191
B5 | -0.1726
B6 | 2.676
B7 | -0.2253
B8 | -0.8212
